The values below come from patent publication US8460669B2, “Compositions and methods for identifying response targets and treating flavivirus infection responses” (Academia Sinica, priority 2005, dated 2013).

This assay concerns the target T1, DVLR1/CLEC5A (Homo sapiens, UniProt Q9NY25).
T1 construct: endogenous in cells; host or cells: human CD14+ PBMC-derived macrophages (M-CSF, 6 days)
T1 sequence (Q9NY25 1-188): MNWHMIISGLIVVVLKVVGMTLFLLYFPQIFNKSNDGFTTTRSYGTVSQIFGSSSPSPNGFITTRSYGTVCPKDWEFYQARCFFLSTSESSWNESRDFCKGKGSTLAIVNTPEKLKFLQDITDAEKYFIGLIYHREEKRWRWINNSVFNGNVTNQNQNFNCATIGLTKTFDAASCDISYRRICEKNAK
Put plainly: DV-induced TNF-α secretion from human macrophages with anti-DVLR1/CLEC5A mAbs. The assay is classed as cell-based. To be noted: for Antagonistic DV1 (suppression of DV-induced TNF-α secretion) / Antagonistic DV2 (suppression of DV-induced TNF-α secretion) / Antagonistic DV3 (suppression of DV-induced TNF-α secretion) / Antagonistic DV4 (suppression of DV-induced TNF-α secretion): antibody 10 μg/sample, p vs isotype control, m.o.i.=5, 36 h p.i.; for TNF-α release from macrophages after infection with DEN1, DEN2, DEN3 and DEN4: dose-dependent manner, ELISA of culture supernatants. The text has this: Monoclonal antibodies against DVLR1/CLEC5A were generated using standard techniques. Briefly, mice were immunized with DVLR-1.Fc fusion protein, and hybridomas were formed by fusing spienocytes from the mice with P3/NSI/1-Ag4-1 [NS-1] myeloma cells (ATCC TIB-18). Among the mAbs generated, clone 9B12, the subclones of 3E12 (clones 3E12A2, 3E12C1, 3E12G9), and clone 8H8F5 suppressed TNF-α release from macrophages after infection with DEN1 (strain 766733A), DEN2 (strain PL046), DEN3 (strain H-87), and DEN4 (strain 866146A) in a dose-dependent manner. […] In accordance with standard nomenclature, each antibody is referred to via the clone number of the hybridoma that secretes it.
According to embodiments illustrated in FIG. 19, DVLR1/CLEC5A is critical for DV-mediated TNF-α, but not IFN-α, secretion. More specifically, FIG. 19a illustrates the dose-dependency of DV and UV-DV induced TNF-α secretion by macrophages measured by ELISA at 6 h and 12 h p.i. FIG. 19b illustrates the kinetics of TNF-α expression after DV infection (m.o.i.=5). FIG. 19c illustrates the effects of DVLR1/CLEC5A and DC-SIGN shRNAs on the secretion of TNF-α, IL-6, MIP1-α, IL-8, IP-10, and IFN-α from DV-infected macrophages (m.o.i.=5). In FIG. 19d, knockdown experiments with receptor specific shRNAs illustrating that DV-induced IFN-α secretion is via the TLR7-MyD88 pathway and TNF-α secretion is via DVLR1/CLEC5A-TLR7-MyD88 pathway. FIG. 19e illustrates antagonistic anti-DVLR1/CLEC5A mAbs inhibiting TNF-α secretion in response to DV serotypes 1-4 is inhibited (see Table 3).
M.R. mAb (anti-mannose receptor mAb; mIgG1) and murine IgM (mIgM) were used as negative controls. In both FIG. 19d and FIG. 19e, macrophages were infected with DV (m.o.i.=5) and harvested at 36 h p.i. for cytokine assays. Data are expressed as mean±s.d. of three independent experiments (using material from at least three different donors). Two-tailed, Student's t-tests were performed. “ND” represents not detected.

B1: 3E12A2: anti-human DVLR1/CLEC5A monoclonal antibody, subclone of 3E12; VH SEQ ID NO: 60, VL SEQ ID NO: 61 (antibody, V domains shown)
VH: QVQLEESGPELVKPGASVKLSCKASGYTFTEYIIHWVKQRSGQGLEWIGWFYPGSGSIKYNEKFKDKATLTADKSSSTVYMELSGLTSEDSAVYFCARHDGYSYFDYWGQGTTLTV
VL: QSPSSLAVSAGEKVTMSCKSSQSLLNSRTRKNYLAWYQQKPGQSPKLLIYWASTRESGVPDRFTGSGSGTDFTLTISSVQAEDLAVYYCKQSYNLYTFGGGTKLEIK
With B1, the “Antagonistic DV1 (suppression of DV-induced TNF-α secretion)” value is given as “** (“**” - p < 0.01)”, the “Antagonistic DV2 (suppression of DV-induced TNF-α secretion)” value (from here on “Antagonistic DV2”) is “** (“**” - p < 0.01)”, the “Antagonistic DV3 (suppression of DV-induced TNF-α secretion)” value (“Antagonistic DV3” for short) is “** (“**” - p < 0.01)” and the “Antagonistic DV4 (suppression of DV-induced TNF-α secretion)” value is listed as “* (“*” - p < 0.05)”. The “TNF-α release from macrophages after infection with DEN1, DEN2, DEN3 and DEN4” value (“TNF-α release from macrophages” for short) is listed as “suppressed”.

B2: 3E12G9: anti-human DVLR1/CLEC5A monoclonal antibody, subclone of 3E12; VH SEQ ID NO: 62, VL SEQ ID NO: 63 (antibody, V domains shown)
VH: QVQLEQSGPELVKPGASVKLSCKASGYTFTEYIIHWVKQRSGQGLEWIGWFYPGSGSIKYNEKFKDKATLTADKSSSTVYMELSGLTSEDSAVYFCARHDGYSYFDYWGQGTTLTV
VL: QSPSSLAVSAGEKVTMSCKSSQSLLNSRTRKNYLAWYQQKPGQSPKLLIYWASTRESGVPDRFTGSGSGTDFTLTISSVQAEDLAVYYCKQSYNLYTFGGGTKLEIK
In the case of B2, the “Antagonistic DV2” value is “** (“**” - p < 0.01)”; the “Antagonistic DV3” value is listed as “** (“**” - p < 0.01)”; the “TNF-α release from macrophages” value was “suppressed”.

B3: 8H8F5: anti-human DVLR1/CLEC5A monoclonal antibody; VH SEQ ID NO: 64, VL SEQ ID NO: 65 (antibody, V domains shown)
VH: ESGRGLVQPGGSRKLSCAASGFTFSTSGMHWVRQAPEKGLEWVAYISSGSTTIYHADTVKGRFTISRDNPKNTLFLQMTSLRSEDTAMYYCARSGQFGNYFDYWGQGTTLTVSS
VL: MTQSPKFLLVSAGDRVTLTCKASQSVNNDVYWYQQEPGQSPKLLIYYASNRYTGVPDRFTGSGYGTDFTFTISTVQSEDLAVYFCQHDYSSPYTFGGGTKLEIKR
In the case of B3, the “Antagonistic DV1 (suppression of DV-induced TNF-α secretion)” value is “* (“*” - p < 0.05)”, the “Antagonistic DV2” value is recorded as “*** (“***” - p < 0.001)”, the “Antagonistic DV3” value is given as “** (“**” - p < 0.01)” and the “Antagonistic DV4 (suppression of DV-induced TNF-α secretion)” value was “* (“*” - p < 0.05)”. Besides, the “TNF-α release from macrophages” value is given as “suppressed”.
